Assay results published in patent US20040258682A1.

What was measured:
[1] = biological target: CD22, the LL2 antigen on the surface of Raji B-lymphoma cells (UniProt P20273); experiment: cell surface binding assay, calculated from ID50 values
[2] = biological target: CD22, the LL2 antigen on the surface of Raji B-lymphoma cells (UniProt P20273); experiment: Raji cell binding assay
[3] = biological target: CD22, the LL2 antigen on the surface of Raji B-lymphoma cells (UniProt P20273); experiment: cell-based or functional assay
[4] = biological target: WN, LL2 anti-idiotype antibody; experiment: WN competitive blocking assay, from ID50 against unmodified control F(ab′)2
[5] = biological target: WN, LL2 anti-idiotype antibody; experiment: WN competitive blocking assay, F(ab′)2 competing with mLL2; design: unit not given beside the values

| Molecule | Immunoreactivity (%), cell binding [1] [%] | rate of antibody internalization (Ke) by Raji cells [3] | other results |
| --- | --- | --- | --- |
| mLL2 F(ab′)2 fragment | 100 | – | – |
| DOX-LL2 (doxorubicin-dextran-LL2 F(ab′)2 conjugate of Example 9) | – | – | immunoreactivity (% of control values) [2]: 80% |
| cLL2Q (chimeric LL2 with the NVT to QVT mutation in VK FR1) (antibody) | – | 0.122 | – |
| murine LL2 monoclonal antibody | – | 0.107 | – |
| mLL2 F(ab′)2 fragment conjugated with dextran-DOX at the VK-appended carbohydrate | 41.9 | – | – |
| hLL2 F(ab′)2 fragment (protein, INN chains, looked up, F(ab')2) VH: QVQLVQSGAEVKKPGSSVKVSCKASGYTFTSYWLHWVRQAPGQGLEWIGYINPRNDYTEYNQNFKDKATITADESTNTAYMELSSLRSEDTAFYFCARRDITTFYWGQGTTVTVSS VL: DIQLTQSPSSLSASVGDRVTMSCKSSQSVLYSANHKNYLAWYQQKPGKAPKLLIYWASTRESGVPSRFSGSGSGTDFTFTISSLQPEDIATYYCHQYLSSWTFGGGTKLEIK | – | – | Immunoreactivity, % of hLL2 [4]: 100%; ID50 [5]: 0.384 |
